Data on one substance can be found in patent US20040072749A1.

In the assay the target is cell-surface MOG-specific IgG1 of 8.18-C5 hybridoma cells. Description: flow cytometry on 8.18-C5 hybridoma cells, biotinylated rMOG and FITC-streptavidin. For orientation: A flow cytometer gives signals particle by particle.

Turning to recombinant, biotinylated MOG (rMOG), the percent of cells that bound rMOG is > 90%.
